Data: PMC7173943

Legend:
CXCR4(D187C)-T4L = CXCR4(D187C)-T4L (UniProt P61073); assay: cross-linking + pull-down; disulfide cross-linking: Cys mutants co-expressed in Sf9 cells; membranes solubilised in DDM/CHS; TALON metal affinity pull-down by the receptor His tag; non-reducing SDS-PAGE and Western blot (anti-Flag, anti-HA); IR800 signal relative to CXCR4(D187C)-vMIP-II(W5C) set to 100%
HA-CXCR4(D20R)-Rluc3 = HA-CXCR4(D20R)-Rluc3 (UniProt P61073)

| Substance | fraction of extracted receptor cross-linked (CXCR4(D187C)-T4L) [%] | β-arrestin-2 recruitment to HA-CXCR4-Rluc3 (BRET2, HEK293T cells), pEC50 (HA-CXCR4(D20R)-Rluc3) |
| --- | --- | --- |
| vMIP-II(W5C) (ligand) | 100 | – |
| CXCL12(R47E) (from UniProt P48061-2 22-89) (ligand) | – | 5.89 -log10(EC50) |
